Data on seven molecules can be found in patent US20260049138A1.

B1: CE115_M (antibody, V domains shown)
VH: EVQLVETGGSLVQPGKSLKLTCATSGFTFSNAWMHWVRQSPEKQLEWVAQIKAKSNNYATYYAESVKGRFTISRDDSKSNIYLQMNSLKEEDTAVYYCRYVHYGAYYGVDAWGQGTSVTVSS
VL: DVVMTQTPVSMSVSLGGQVSISCRSSQSLVHNNGNTYVSWYIQKPSQSPQLLIYKVSNRFSGISDRFSGSGSGTDFTLKISRVEPDDLGVYYCGQGTQDPYTFGAGTKLELK
B2: GLS3000 H27dT (antibody, name in Kabat numbering, V domains shown)
VH: QVQLVESGGGVVQPGRSLRLSCAASGFTFSNAWMHWVRQAPGKGLEWVAQIKAKSNNYATYYAESVKGRFTISRDDSKNSLYLQMNSLKTEDTAVYYCRYVHYGAYYGVDAWGQGTTVTVSS
VL: DIVMTQSPLSLPVTPGEPASISCRSSQSLVTSNRNTYLHWYQQKPGQAPRLLIYKVSNRFSGVPDRFSGSGSGTDFTLKISRVEAEDVGVYYCGQGTQVPYTFGQGTKLEIK
B3: GLS3000 H27dV (antibody, name in Kabat numbering, V domains shown)
VH: B2 VH
VL: B2 VL with T31V
B4: GLS3000 G91S (antibody, name in Kabat numbering, V domains shown)
VH: B2 VH
VL: B2 VL with T31H, G96S
B5: GLS3000 H34R (antibody, name in Kabat numbering, V domains shown)
VH: B2 VH
VL: B2 VL with T31H, H39R
B6: GLS3000 G89R (antibody, name in Kabat numbering, V domains shown)
VH: B2 VH
VL: B2 VL with T31H, G94R
B7: GLS3000 N28D (antibody, name in Kabat numbering, V domains shown)
VH: B2 VH
VL: B2 VL with T31H, N33D

Positions count from the first letter of the chain named. Names and notes keep the numbering of the source.

Sequence of CD3ε homodimer protein (human) (P07766 23-126 limits assumed): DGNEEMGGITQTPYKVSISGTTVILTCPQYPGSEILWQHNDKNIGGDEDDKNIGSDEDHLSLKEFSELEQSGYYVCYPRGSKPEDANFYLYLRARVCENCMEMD

The first experiment addresses biotinylated CD3ε epitope peptide. The experiment is described as follows: SPR, Biacore T100, biotinylated CD3ε epitope peptide on CM5 via streptavidin, antibody as analyte.
As for B1, the Kd (as a rule, the free concentration of one partner at which half of the binding sites on the other are occupied at equilibrium, for simple one-to-one binding) was determined as 67 nM.

A further experiment addresses CD3ε homodimer protein (human) (UniProt P07766). Description: SPR. On the technique in general: In SPR one partner is held on a chip, and binding of the other changes the refractive index at the surface.
As to B2, the KD ratio to GLS3000 was 13000. B3: the KD ratio to GLS3000 is 354. As to B4, the KD ratio to GLS3000 amounted to 72100.

On to B5, for which the KD ratio to GLS3000 is 85800.

As to B6, the KD ratio to GLS3000 is 4130. Turning to B7, the KD ratio to GLS3000 was 4460.
